Laboratory results published in paper PMC11485096.

Target: AtoB (Aspergillus ochraceus LZDX-32-15)
Assay: crystal structure

Substance: AtoB (enzyme)
- stoichiometry N: 2
